From patent US20250250357A1 (NANJING ZAIMING PHARMACEUTICAL, published 2025)

What was measured:
[1] = molecular target: T1, human MSLN-R1-his protein (human, UniProt Q13421 296-390); assay: ELISA, coated MSLN-R1;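 further: serially diluted chimeric antibodies bound to the coated, BSA-blocked plate for 2 h at 37 °C, with TMB colour read after acid stop and a negative control antibody alongside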
T1 construct: Region 1 of human MSLN, His-tagged; also called human MSLN-R1 protein; hMSLN-R1-his; not shown: His tag
T1 chain: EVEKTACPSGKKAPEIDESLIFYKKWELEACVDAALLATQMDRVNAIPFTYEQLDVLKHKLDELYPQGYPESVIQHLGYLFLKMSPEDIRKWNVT

[2] = molecular target: T2, human MSLN-FL-his protein (human, UniProt Q13421 296-580); assay: ELISA, coated MSLN full-length;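 further: binding of chimeric antibodies to plate-bound antigen, read by TMB colour after acid stop, antibody incubated 2 h at 37 °C, negative control antibody run alongside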
T2 construct: also called human MSLN full-length protein; hMSLN-FL-his; not shown: His tag

[3] = molecular target: T3, human MSLN-FL-his protein (human, UniProt Q13421 296-580); assay: SPR (Biacore), antibody captured on Protein A chip;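 further: measured at 25 °C, analyte injected 240 s in five twofold dilutions from 200 nM, dissociation up to 600 s, double-referenced, fitted with Langmuir 1:1 model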
T3 construct: made in HEK293E cells, purified on nickel column; also called hMSLN-FL-his; human MSLN full-length protein; not shown: His tag
T3 sequence (Q13421 other isoform, or with tags, fused parts or gaps): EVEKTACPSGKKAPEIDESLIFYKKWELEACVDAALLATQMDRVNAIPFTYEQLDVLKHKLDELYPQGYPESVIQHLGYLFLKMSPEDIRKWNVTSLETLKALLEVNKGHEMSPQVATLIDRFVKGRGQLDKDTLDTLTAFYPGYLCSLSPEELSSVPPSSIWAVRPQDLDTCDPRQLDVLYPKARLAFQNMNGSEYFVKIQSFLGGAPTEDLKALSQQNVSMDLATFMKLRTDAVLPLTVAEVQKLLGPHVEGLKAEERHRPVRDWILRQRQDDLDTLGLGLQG

| Binder | OD450 at 0.0001 nM [1] | OD450 at 0.001 nM [1] | OD450 at 0.01 nM [1] | OD450 at 0.1 nM [1] | OD450 at 1 nM [1] | OD450 at 10 nM [1] | OD450 at 100 nM [1] | OD450 at none (no antibody) [1] | OD450 at 0.0001 nM [2] | OD450 at 0.001 nM [2] | OD450 at 0.01 nM [2] | OD450 at 0.1 nM [2] | OD450 at 1 nM [2] | OD450 at 10 nM [2] | OD450 at 100 nM [2] | OD450 at none (no antibody) [2] | Kd [3] | koff [3] | kon [3] |
| --- | --- | --- | --- | --- | --- | --- | --- | --- | --- | --- | --- | --- | --- | --- | --- | --- | --- | --- | --- |
| S009-F2.13.3 (antibody, human IgG1, kappa, V domains shown, Human-murine chimeric antibody, human IgG1/kappa constant regions) VH: QVQLQQSGAELMKPGASVKLSCKATGYTFTGYWIEWVKQRPGHGLEWIGEILPGSGSTNYNEKFKGKATFTADTSSNTAYMQLSSLTTEDSAIYYCARAGAWFAYWGQGTLVTVSA VL: QIVLTQSPAIMSASLGERVTMTCTASSSVSSSYLHWYQQKPGSSPKLWTYSTSNLASGVPARFSGSGSGTSYSLTISSMEAEDAATYYCHQYHRSPWTFGGGTKLEIKR | 0.05 OD450 | 0.05 OD450 | 0.05 OD450 | 0.05 OD450 | 0.05 OD450 | 0.05 OD450 | 0.06 OD450 | 0.06 OD450 | 0.06 OD450 | 0.08 OD450 | 0.26 OD450 | 1.3 OD450 | 2.08 OD450 | 2.37 OD450 | 2.77 OD450 | 0.06 OD450 | – | – | – |
| S009-F2.16.10 (antibody, human IgG1, kappa, V domains shown, Human-murine chimeric antibody, human IgG1/kappa constant regions) VH: QVQLQQPGAELIKPGASVKLSCKASGYTFTSYWMHWVKQRPGQGLEWIGIIHPNIGSTNYNERFKSKATLTVDKSSSTAYMQLSSLTSEDSAVYYCARRSSNYGDWYFDVWGTGTTVTVSS VL: DIVMTQSHRFMSTSVGDRVSITCKASQDVGTSVAWYQQKPGQSPKLLIYWASTQHTGVPDRFTGSGSGTDFTLTINNVQSEDLLDYFCQQYSSYPLTFGAGTKLELKR | 0.05 OD450 | 0.06 OD450 | 0.09 OD450 | 0.44 OD450 | 0.94 OD450 | 1.62 OD450 | 2.03 OD450 | 0.06 OD450 | 0.05 OD450 | 0.09 OD450 | 0.41 OD450 | 1.71 OD450 | 2.22 OD450 | 2.4 OD450 | 2.92 OD450 | 0.06 OD450 | – | – | – |
| S009-F2.17.3 (antibody, human IgG1, kappa, V domains shown, Human-murine chimeric antibody, human IgG1/kappa constant regions) VH: QVQLQQPGTELVTPGASVKLSCKASGYSFTSYWMHWVKQRPGQGLEWIGNINPSNGDTFYNEKFKNKATLTVDKSSSTAYMQLSSLTSEDSAVYYCARGWLRDYWGQGTTLTVSS VL: not shown | 0.05 OD450 | 0.05 OD450 | 0.04 OD450 | 0.05 OD450 | 0.04 OD450 | 0.06 OD450 | 0.07 OD450 | 0.06 OD450 | 0.05 OD450 | 0.06 OD450 | 0.13 OD450 | 0.64 OD450 | 1.93 OD450 | 2.48 OD450 | 2.81 OD450 | 0.06 OD450 | – | – | – |
| S009-F2.21.4 (antibody, human IgG1, kappa, V domains shown, Human-murine chimeric antibody, human IgG1/kappa constant regions) VH: EVQLQQSGPELVKPGASVKIPCKASGYTFTDYNMDWVKQSHGKSLEWIGDINPNNGGSIYNQRFKGKATLTVDKSSSTAYMELRSLTSEDSAVYYCARRAYYSTGYFDVWGTGTTVTVSS VL: QIVLTQSPALMSASPGEKVTITCSASSSISYMHWFQQKPGTSPKLWIYSTSTLASGVPARFSGSGSGTSYSLTISRMEAEDTATYYCQQRSSYPPTFGGGTKLEIKR | 0.05 OD450 | 0.05 OD450 | 0.05 OD450 | 0.05 OD450 | 0.05 OD450 | 0.05 OD450 | 0.06 OD450 | 0.06 OD450 | 0.05 OD450 | 0.09 OD450 | 0.41 OD450 | 1.93 OD450 | 2.46 OD450 | 2.56 OD450 | 2.95 OD450 | 0.06 OD450 | – | – | – |
| S009-F2.23.12 (antibody, human IgG1, kappa, V domains shown, Human-murine chimeric antibody, human IgG1/kappa constant regions) VH: QVQLQQPGTELVKPGASVKLSCKASGYTFTNYWMHWVKQRPGQGLEWIGNINPSNGGPYYNERFRSKATLTVDKSSSTAYMQLSSLTSEDSAVYYCARPYYGSSYGYFDYWGQGTTLTVSS VL: DIQMTQSPSSLSASLGGKVTITCKASQDINKYIAWYQHKPGKGPRLLIHYTSELQPGIPSRFSGNGSGRDYSFSISNLEPEDIATYYCLQYANPLRTFGGGTKLEIKR | 0.05 OD450 | 0.05 OD450 | 0.06 OD450 | 0.05 OD450 | 0.05 OD450 | 0.05 OD450 | 0.06 OD450 | 0.06 OD450 | 0.05 OD450 | 0.06 OD450 | 0.24 OD450 | 1.27 OD450 | 2.21 OD450 | 2.5 OD450 | 2.72 OD450 | 0.06 OD450 | – | – | – |
| S009-F2.39.3 (antibody, human IgG1, kappa, V domains shown, Human-murine chimeric antibody, human IgG1/kappa constant regions) VH: QVQLQQPGTELVKPGASVKLSCKASGYTFTNYWMHWVKQRPGQGLEWIGNINPSSGDSYYNERFMSKAKMTVDKSSSTAYMQLSSLTSEDSAVYYCARSGGLWLAFWGPGTLVTVSA VL: DIVMTQSPSSLAMSVGQKVTMSCKSSQTLLNSVSQNNYLAWYQQKPGQSPTLLVYFASTRESGVPDRFIGGGSGTDFTLTISSVQAEDLADYFCQQHYRTPYTFGGGTNLEIKR | 0.05 OD450 | 0.05 OD450 | 0.05 OD450 | 0.05 OD450 | 0.05 OD450 | 0.06 OD450 | 0.07 OD450 | 0.06 OD450 | 0.05 OD450 | 0.05 OD450 | 0.08 OD450 | 0.42 OD450 | 1.57 OD450 | 2.37 OD450 | 2.53 OD450 | 0.06 OD450 | – | – | – |
| S009-F2.47.1 (antibody, human IgG1, kappa, V domains shown, Human-murine chimeric antibody, human IgG1/kappa constant regions) VH: QVQLQQPGAELVKPGASVKLSCKASGYTFTSYWMHWVKQRPGQGLEWIGMIHPNSGSTNYNEKFKSKATLTVDKSSSTAYMQLSSLTSEDSAVYYCARPVVPYWYFDVWGTGTTVTVSS VL: DIVMTQSQKFMSTTVGDRVSITCKASQNVGTAVAWYQQKPGQSPKLLIYSASNRYTGVPDRFTGSGSGTDFTLTISNMQSEDLADYFCQQSSSYPLTFGAGTKLELKR | 0.05 OD450 | 0.05 OD450 | 0.05 OD450 | 0.05 OD450 | 0.09 OD450 | 0.23 OD450 | 0.36 OD450 | 0.06 OD450 | 0.06 OD450 | 0.1 OD450 | 0.45 OD450 | 1.78 OD450 | 2.31 OD450 | 2.4 OD450 | 2.57 OD450 | 0.06 OD450 | – | – | – |
| S009-F2.58.8 (antibody, human IgG1, kappa, V domains shown, Human-murine chimeric antibody, human IgG1/kappa constant regions) VH: QVQLLQSGAELAKPGASVKLSCKASGYTFTSYWVHWVKQRPGQGLEWIGYINPNSGYTKYNQKFKDKATLTADKSSSTAYMQLSSLTYEDSAVYYCADHYYGSSRDYFDYWGQGTTLTVSS VL: QIVLTQSPAIMSASPGEKVTMTCSASSSVSYMYWYQQRPGSSPRLLIYDTSNLASGVPVRFSGSGSGTSYSLTISRMEAEDAATYYCQQWNSYPYTFGGGTKLEIKR | 0.05 OD450 | 0.05 OD450 | 0.05 OD450 | 0.06 OD450 | 0.13 OD450 | 0.43 OD450 | 0.83 OD450 | 0.06 OD450 | 0.05 OD450 | 0.06 OD450 | 0.09 OD450 | 0.4 OD450 | 1.56 OD450 | 2.47 OD450 | 2.87 OD450 | 0.06 OD450 | – | – | – |
| S009-F1.59.1 (antibody, human IgG1, kappa, V domains shown, human-murine chimeric antibody, human IgG1/kappa constant regions) VH: EVKLEGSGGGLVQPGGSMMLSCVATGFTFSSYWMNWVRQSPDRGLEWVAEIRLKSNGFAAFYAESVKGRFTISRDDSKSSVYLQMNNLRTEDTGIYYCTYFVHWGQGILVTVSE VL: DIVLTQSPTSLAVSLGQRATISCRTSESVEYFGTILIQWYQQKPGQPPKLLIFGASNVESGVPARFSGSGSGTDFSLNIHPVEEEDIAMYFCQQNRKVPYTFGGGTTLELKR | – | – | – | – | – | – | – | – | – | – | – | – | – | – | – | – | 563 nM | 0.000922 s⁻¹ | 1640 M⁻¹ s⁻¹ |
| S009-F1.62.9 (antibody, human IgG1, kappa, V domains shown, human-murine chimeric antibody, human IgG1/kappa constant regions) VH: EVQLQQSGADLVKPGASVKLSCTVFGLNFKDTFMHWVRQRPEQGLEWIGRIDPANDNSIYGPKFQDKATITADTSSNTAYLHLSSLTSEDTAVYYCLYFDNWGHGTTLTVSS VL: DIVMTQAASSEPVTPGESVSISCRSDKSLLHSNGHNYLYWFLQRPGQSPHLLIYRMSNLASGVPDRFSGSGSGTAFTLRISRVEAEDVGVYYCMQHLEYPLTFGAGTKLELKR | – | – | – | – | – | – | – | – | – | – | – | – | – | – | – | – | 745 nM | 0.000348 s⁻¹ | 467 M⁻¹ s⁻¹ |
| S009-F2.21.4 (antibody, human IgG1, kappa, V domains shown, human-murine chimeric antibody, human IgG1/kappa constant regions) VH: EVQLQQSGPELVKPGASVKIPCKASGYTFTDYNMDWVKQSHGKSLEWIGDINPNNGGSIYNQRFKGKATLTVDKSSSTAYMELRSLTSEDSAVYYCARRAYYSTGYFDVWGTGTTVTVSS VL: QIVLTQSPALMSASPGEKVTITCSASSSISYMHWFQQKPGTSPKLWIYSTSTLASGVPARFSGSGSGTSYSLTISRMEAEDTATYYCQQRSSYPPTFGGGTKLEIKR | – | – | – | – | – | – | – | – | – | – | – | – | – | – | – | – | 29.1 nM | 0.0227 s⁻¹ | 780000 M⁻¹ s⁻¹ |
| S009-F2.38.12 (antibody, human IgG1, kappa, V domains shown, human-murine chimeric antibody, human IgG1/kappa constant regions) VH: QVQLQQPGTELVKPGASVKLSCKASGYTFTSYWMHWVKQRPGQGLEWIGNINPSNGGTNYNEKIKNKATLTVDKSSSTAYMQLSSLTSEDSAVYYCARWNYYGNYPFDYWGQGTTLTVSS VL: DIVMTQSQKFMSTTVGDRVSITCKASQNVGTAVAWYQQKPGQSPKLLIYSASNRYTGVPDRFTGSGSGTDFTLTISNMQSEDLADYFCQQYSSYPLTFGAGTKLELKR | – | – | – | – | – | – | – | – | – | – | – | – | – | – | – | – | 30.8 nM | 0.0109 s⁻¹ | 354000 M⁻¹ s⁻¹ |
